Data on 10 molecules can be found in patent US20240417458A1 (DISC MEDICINE, published 2024).

A word on the Kd: it is a measure of binding affinity in units of concentration. Low values mean tighter binding, high ones weaker binding. What is called koff is the rate constant with which the complex falls apart. High values mean fast dissociation, low ones slow dissociation. As a reminder, the kon is the rate constant with which the complex forms. Read a high kon as fast association.

Changes are numbered by the printed parent chain. Names may count otherwise.

The target of assay [1] is T1, soluble human RGMa (human, UniProt Q96B86 48-422, limits assumed).
T1 construct: Soluble antigen in BIAcore; also called huRGMa; repulsive guidance molecule A
T1 sequence (looked up): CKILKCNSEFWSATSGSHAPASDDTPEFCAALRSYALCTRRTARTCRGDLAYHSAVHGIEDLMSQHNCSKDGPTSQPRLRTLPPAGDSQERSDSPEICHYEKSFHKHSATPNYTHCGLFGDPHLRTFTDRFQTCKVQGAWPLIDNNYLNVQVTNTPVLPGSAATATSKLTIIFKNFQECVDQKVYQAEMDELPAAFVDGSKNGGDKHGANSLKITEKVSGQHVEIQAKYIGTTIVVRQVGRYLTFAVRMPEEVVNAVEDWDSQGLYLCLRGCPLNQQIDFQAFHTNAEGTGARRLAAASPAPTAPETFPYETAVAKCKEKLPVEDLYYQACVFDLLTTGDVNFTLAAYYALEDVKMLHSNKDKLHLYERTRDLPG
Description: SPR (BIAcore). (Surface plasmon resonance follows binding to a sensor surface in real time, without labels.)
Description: (§1) Binding affinities of the anti-HJV antibodies to soluble human RGMa, Rat RGMa and human RGMc were measured by BIAcore analysis.

The target in assay [2] is T2, soluble rat RGMa (rat, UniProt D4A188 48-421).
T2 construct: Soluble antigen in BIAcore
T2 sequence: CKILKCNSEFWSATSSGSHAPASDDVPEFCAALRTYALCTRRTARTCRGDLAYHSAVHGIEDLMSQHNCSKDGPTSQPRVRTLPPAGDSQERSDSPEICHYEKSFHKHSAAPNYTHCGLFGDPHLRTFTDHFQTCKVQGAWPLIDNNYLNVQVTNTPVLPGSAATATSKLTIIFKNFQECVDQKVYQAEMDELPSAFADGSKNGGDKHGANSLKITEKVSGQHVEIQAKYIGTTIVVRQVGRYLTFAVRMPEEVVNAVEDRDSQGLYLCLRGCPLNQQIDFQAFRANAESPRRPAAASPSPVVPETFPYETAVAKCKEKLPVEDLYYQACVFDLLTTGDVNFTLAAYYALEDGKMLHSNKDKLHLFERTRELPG
Description: SPR (BIAcore).
Description: as §1

Assay [3] concerns the target T3, soluble human RGMc (human, UniProt Q6ZVN8 36-400).
T3 construct: also called huRGMc; soluble hRGMc
T3 sequence: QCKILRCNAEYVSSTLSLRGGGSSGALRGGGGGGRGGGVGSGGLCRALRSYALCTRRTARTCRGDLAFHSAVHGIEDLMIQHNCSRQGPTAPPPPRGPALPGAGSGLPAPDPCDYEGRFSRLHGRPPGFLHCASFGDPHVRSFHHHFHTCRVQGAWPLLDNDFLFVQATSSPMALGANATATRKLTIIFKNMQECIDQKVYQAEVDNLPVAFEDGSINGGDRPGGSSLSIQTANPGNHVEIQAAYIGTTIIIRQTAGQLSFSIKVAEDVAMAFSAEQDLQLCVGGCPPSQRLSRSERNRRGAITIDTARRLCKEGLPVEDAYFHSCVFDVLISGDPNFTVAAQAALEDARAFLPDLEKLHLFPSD
Put plainly: SPR (BIAcore).
Description: as §1

The target in assay [4] is T4, membrane-bound human RGMc (human, UniProt Q6ZVN8 36-400).
T4 sequence: T3 sequence
Description: cell-based or functional assay.

Assay [5] has as its target T5, membrane-bound human RGMa (human, UniProt Q96B86 169-424).
T5 sequence (looked up): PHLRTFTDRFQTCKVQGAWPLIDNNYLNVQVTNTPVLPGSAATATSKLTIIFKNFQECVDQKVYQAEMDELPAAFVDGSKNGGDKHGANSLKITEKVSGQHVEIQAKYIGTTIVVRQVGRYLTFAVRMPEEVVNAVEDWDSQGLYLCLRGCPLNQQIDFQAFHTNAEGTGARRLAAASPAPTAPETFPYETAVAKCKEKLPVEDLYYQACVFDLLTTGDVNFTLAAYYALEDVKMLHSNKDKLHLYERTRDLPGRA
Put plainly: cell-based or functional assay.

Assay [6] concerns the target T4, membrane-bound human RGMc. Put plainly: cell-based or functional assay. The source holds these as a separate data set.
The target of assay [7] is T5, membrane-bound human RGMa. Put plainly: cell-based or functional assay. The source holds these as a separate data set.
Assay [8] deals with T4, membrane-bound human RGMc. Put plainly: cell-based or functional assay. This is another data set of the same source.
The target in assay [9] is T5, membrane-bound human RGMa. Description: cell-based or functional assay. The source holds these as a separate data set.
Assay [10] has as its target T3, soluble human RGMc. Description: SPR (BIAcore), soluble hRGMc; summary table.

B1: hHA-001 (antibody, human IgG1, kappa, L234A L235A, V domains shown)
VH: EVQLVESGGGLVQPGGSLRLSCAASGFTFSNYGMNWIRQAPGKGLEWIGMIYYDSSEKHYADSVKGRFTISRDNSKNTLYLQMNSLRAEDTAVYYCAKGTTPDYWGQGTMVTVSS
VL: DVVLTQSPLSLPVTLGQPASISCRSSQSLETSDGDTFLEWFQQRPGQSPRLLIYEVSTRFSGVPDRFSGSGSGTDFTLKISRVEAEDVGVYYCFQVTHDPMTFGQGTKLEIKR
notes: hIgG1 constant region with L234A, L235A, kappa
Turning to B1, in [1], the affinity, expressed as Kd, was 0.038 nM; the koff was determined as 6.7e-05 s⁻¹; the kon was found to be 1.8e+06 M⁻¹ s⁻¹. In assay [2], this molecule showed a Kd of 0.031 nM, a koff of 3.6e-05 s⁻¹ and a kon of 1.2e+06 M⁻¹ s⁻¹. For the same molecule, in assay [3], the affinity, expressed as Kd, was 0.16 nM; the koff amounted to 0.00165 s⁻¹; the kon was 1.08e+07 M⁻¹ s⁻¹.

B2: hHA-003 (antibody, human IgG1, kappa, L234A L235A, V domains shown)
VH: B1 VH
VL: B1 VL with T58N, M101V
notes: hIgG1 L234A, L235A, kappa
For the molecule B2, the Kd in assay [1] amounted to 0.12 nM; in assay [2] it was 0.036 nM; in assay [3], 0.3 nM. Also, the koff in [1] came to 0.00014 s⁻¹; in assay [2] it was 3.1e-05 s⁻¹; in assay [3] it was 0.0024 s⁻¹. Besides, the kon is 1.1e+06 M⁻¹ s⁻¹ in assay [1], 870000 M⁻¹ s⁻¹ in assay [2] and 8.1e+06 M⁻¹ s⁻¹ in [3].

B3: hHA-011 (antibody, human IgG1, kappa, L234A L235A, V domains shown)
VH: B1 VH with I37V, T100S
VL: B1 VL with T31D, D35G, E55D, T58S, V96A, M101L, T102S
notes: hIgG1 L234A, L235A, kappa
For the molecule B3, the Kd in assay [1] stood at 0.11 nM; in [2], 0.074 nM; in [3], 0.285 nM; in [10] it was 0.285 nM. Also, the off-rate (koff) worked out at 9.9e-05 s⁻¹ in assay [1], 5.2e-05 s⁻¹ in [2], 0.0014 s⁻¹ in assay [3] and 0.0014 s⁻¹ in [10]. Besides, the kon in [1] is 930000 M⁻¹ s⁻¹; in assay [2] it was 700000 M⁻¹ s⁻¹; in assay [3], 5.05e+06 M⁻¹ s⁻¹; in [10], 5.05e+06 M⁻¹ s⁻¹. Also, the “IC50 (nM), BMP reporter assay for RGMc (BRE-Luc, HEK293)” value (“IC50 (nM), BMP reporter assay for RGMc” for short) in assay [4] was found to be 0.0554 nM. Further, the “IC50 (nM), BMP reporter assay for RGMa” value in assay [5] was determined as 1.66 nM. In addition, the “Potency on membrane hRGMc (RGMc/BMP reporter assay), IC50” value in assay [6] worked out at 0.52 nM. In addition, the “Potency on membrane hRGMa (RGMa/BMP reporter assay), IC50” value in assay [7] amounted to 1.7 nM. The “IC50 (read off the curve)” value in assay [8] is approximately 0.5 nM; in [9], approximately 2 nM.

B4: hHA-007 (antibody, human IgG1, kappa, L234A L235A, V domains shown)
VH: B1 VH with E57D, Y104V
VL: B1 VL with T31E, D35Y, E39H, T58N, V96A, M101V
notes: hIgG1 L234A, L235A, kappa
With B4, in assay [1], the Kd turned out to be 0.15 nM, the koff came to 8.9e-05 s⁻¹ and the kon stood at 590000 M⁻¹ s⁻¹. Besides, in assay [2], the Kd was less than 0.002 nM, the koff was less than 1e-06 s⁻¹ and the kon worked out at 510000 M⁻¹ s⁻¹. Also, in [3], the dissociation constant (Kd) is 0.425 nM, the koff was found to be 0.00215 s⁻¹ and the kon came out at 5.05e+06 M⁻¹ s⁻¹.

B5: hHA-010 (antibody, human IgG1, kappa, L234A L235A, V domains shown)
VH: B1 VH with I37V, Y104K
VL: B1 VL with T31E, D35Y, T58H, V96A, M101L
notes: hIgG1 L234A, L235A, kappa
In assay [1], B5 returned a Kd of 0.12 nM, a koff of 0.0001 s⁻¹ and a kon of 850000 M⁻¹ s⁻¹. In [2], this molecule gave a Kd of 0.039 nM, a koff of 2.6e-05 s⁻¹ and a kon of 660000 M⁻¹ s⁻¹. In [3], this molecule showed a dissociation constant (Kd) of 0.445 nM, a koff of 0.0044 s⁻¹ and a kon of 9.9e+06 M⁻¹ s⁻¹.

B6: hHA-004 (antibody, human IgG1, kappa, L234A L235A, V domains shown)
VH: B1 VH
VL: B1 VL with T31S, E55D, M101V
notes: hIgG1 L234A, L235A, kappa
Regarding B6, the Kd in assay [1] is 0.015 nM; in [2] it was less than 0.00094 nM; in [3], 0.13 nM; in [10] it was 0.13 nM. Also, the koff was 2.2e-05 s⁻¹ in [1], less than 1e-06 s⁻¹ in assay [2], 0.00104 s⁻¹ in assay [3] and 0.00104 s⁻¹ in [10]. For the same molecule, the kon stood at 1.4e+06 M⁻¹ s⁻¹ in [1], 1.1e+06 M⁻¹ s⁻¹ in assay [2], 7.85e+06 M⁻¹ s⁻¹ in [3] and 7.85e+06 M⁻¹ s⁻¹ in assay [10]. Also, the “IC50 (nM), BMP reporter assay for RGMc” value in assay [4] is 0.312 nM. The “IC50 (nM), BMP reporter assay for RGMa” value in assay [5] came out at 2.01 nM. In addition, the “Potency on membrane hRGMc (RGMc/BMP reporter assay), IC50” value in assay [6] is 0.31 nM. The “Potency on membrane hRGMa (RGMa/BMP reporter assay), IC50” value in assay [7] is 2 nM. For the same molecule, the “IC50 (read off the curve)” value in assay [8] was approximately 0.3 nM; in assay [9], approximately 2 nM.

B7: hHA-009 (antibody, human IgG1, kappa, L234A L235A, V domains shown)
VH: B1 VH with I37V
VL: B1 VL with E30A, T31D, E39H, E55A, T58H, V96A, M101V
notes: hIgG1 L234A, L235A, kappa
For the molecule B7, the Kd is 0.47 nM in assay [1], 0.31 nM in assay [2], 0.71 nM in assay [3] and 0.71 nM in assay [10]. The koff was 0.0004 s⁻¹ in assay [1], 0.00021 s⁻¹ in assay [2], 0.0107 s⁻¹ in [3] and 0.0107 s⁻¹ in [10]. Further, the kon in assay [1] worked out at 860000 M⁻¹ s⁻¹; in assay [2], 680000 M⁻¹ s⁻¹; in assay [3], 1.55e+07 M⁻¹ s⁻¹; in assay [10], 1.55e+07 M⁻¹ s⁻¹. Moreover, the “IC50 (nM), BMP reporter assay for RGMc” value in [4] came to 1.36 nM. Also, the “Potency on membrane hRGMc (RGMc/BMP reporter assay), IC50” value in assay [6] amounted to 1.36 nM. Also, the “IC50 (read off the curve)” value in [8] was approximately 2 nM.

B8: hHA-002 (antibody, human IgG1, kappa, L234A L235A, V domains shown)
VH: B1 VH
VL: B1 VL with T58S, F94M, M101L
notes: hIgG1 L234A, L235A, kappa
B8: in assay [1], the equilibrium dissociation constant (Kd) is 0.037 nM, the koff stood at 5e-05 s⁻¹ and the kon is 1.4e+06 M⁻¹ s⁻¹. In assay [2], the Kd is 0.053 nM, the koff worked out at 5.5e-05 s⁻¹ and the kon turned out to be 1e+06 M⁻¹ s⁻¹. In assay [3], this molecule gave a Kd of 0.225 nM, a koff of 0.0017 s⁻¹ and a kon of 7.65e+06 M⁻¹ s⁻¹.

B9: hHA-006 (antibody, human IgG1, kappa, L234A L235A, V domains shown)
VH: B1 VH with N31Y
VL: B1 VL with T31D, D35G, E55D, T58S, V96A, M101L
notes: hIgG1 L234A, L235A, kappa
In the case of B9, in [1], the affinity, expressed as Kd, was 0.12 nM; the koff came to 0.00014 s⁻¹; the kon amounted to 1.2e+06 M⁻¹ s⁻¹. For the same molecule, in [2], the Kd turned out to be 0.032 nM, the koff was 3e-05 s⁻¹ and the kon came to 940000 M⁻¹ s⁻¹. In assay [3], this molecule displayed a Kd of 0.385 nM, a koff of 0.00255 s⁻¹ and a kon of 6.65e+06 M⁻¹ s⁻¹.

B10: hHA-005 (antibody, human IgG1, kappa, L234A L235A, V domains shown)
VH: B1 VH
VL: B1 VL with T31E, D35Y, E55D, T58E, V96A, H98Y, M101L
notes: hIgG1 L234A, L235A, kappa
In [1], B10 showed a Kd of 0.13 nM, a koff of 0.00025 s⁻¹ and a kon of 1.9e+06 M⁻¹ s⁻¹. For the same molecule, in assay [2], the equilibrium dissociation constant (Kd) is 0.15 nM, the koff came out at 0.00021 s⁻¹ and the kon is 1.4e+06 M⁻¹ s⁻¹. Moreover, in assay [3], the Kd was 0.32 nM, the koff came to 0.0136 s⁻¹ and the on-rate constant (kon) is 4.15e+07 M⁻¹ s⁻¹.
